In one assay the test system is T cells expressing TPOR. The experiment in a line: Stimulation of T cells expressing TPOR for 7 days; cell number and percent transgenic cells by flow cytometry. The assay is classed as cell-based, human. Particulars: 0.1 μg/ml; for TPOR fraction after addition of agonist: enriched from 12.9% without addition. The protocol:
(§1) FIG. 12: T cells transduced to express (i) the thrombopoietin receptor (TPOR) or (ii) the GCF receptor with a deletion at aa 715 (GCSFRd715) are active and can drive T cell proliferation via the non-canonical JAK2 pathway. T cells expressing GCSFRd715, TPOR, or the truncated NGFR as a control were stimulated for 7 days with IL-2/IL-7/IL-15 (all at 5 ng/ml; denoted as CK; positive control condition), 0.1 μg/ml recombinant thrombopoietin (TPO), 0.1 μg/ml TPO agonist eltrombopag (EP), or 0.1 μg/ml GCSF. Cell number (top) or percent transgenic cells (bottom) were quantified using flow cytometry at 7 days.
(§2) FIG. 13: Exemplary flow cytometry plots showing that exposure of transgenic cytokine receptor transduced cells to the cognate cytokine (i.e. GCSFRd715 to GCSF; TPOR to TPO or EP) leads to enrichment of CAR expressing cells at 7 days. Addition of GCSF enriched the GCSRFd715 transgenic cell fraction from 15.6% to 64.9% (top panel). Addition of TPO enriched the TPOR fraction from 12.9% to 82% and addition of EP enriched the TPOR fraction from 12.9% to 55.9% (bottom panel).
(§3) Healthy donor T cells were transduced to express (i) the thrombopoietin receptor (TPOR) or (ii) the GCF receptor with a deletion at aa 715 (GCSFRd715). T cells expressing GCSFRd715, TPOR, or the truncated NGFR as a control were stimulated for 7 days with IL-2/IL-7/IL-15 (all at 5 ng/ml; denoted as CK; positive control condition), 0.1 μg/ml recombinant thrombopoietin (TPO), 0.1 μg/ml TPO agonist eltrombopag (EP), or 0.1 μg/ml GCSF. Cell number (FIG. 12, top) or percent transgenic cells (FIG. 12, bottom) were quantified using flow cytometry at 7 days.
On the technique in general: In flow cytometry, cells or beads pass a laser one at a time.

The target in assay [1] is GCF receptor with a deletion at aa 715 (GCSFRd715) (UniProt Q99062). The assay can be described thus: cell-based or functional assay.
Another assay deals with TPOR. The assay can be described thus: Phosphorylation of STAT3 and STAT5 in TPOR expressing T cells after 24 hours stimulation, flow cytometry. The assay is classed as cell-based, human. Particulars: 0.1 μg/ml. The protocol:
FIG. 14: TPOR stimulation leads to activation of STAT3 and STAT5. Healthy donor T cells expressing TPOR or untransduced control T cells were stimulated for 24 hours with 5 ng/ml IL-2/IL-7/IL-15 (CK), 0.1 μg/ml TPO or 0.1 μg/ml Eltrombopag (EP). Following stimulation cells were fixed and the phosphorylation of STAT3 and STAT5 quantified using flow cytometry.
TPOR stimulation led to activation of STAT3 and STAT5 (FIG. 14). Healthy donor T cells expressing TPOR or untransduced control T cells were stimulated for 24 hours with 5 ng/ml IL-2/IL-7/IL-15 (CK), 0.1 μg/ml TPO, or 0.1 μg/ml Eltrombopag (EP). Following stimulation cells were fixed and the phosphorylation of STAT3 and STAT5 quantified using flow cytometry.

Assay [2] deals with T cells expressing the truncated NGFR. The experiment in a line: Stimulation of negative control T cells expressing truncated NGFR for 7 days; flow cytometry. It counts as cell-based, human. Particulars: 0.1 μg/ml. The method, then: as §1, §3
For assay [3], the target named is thrombopoietin receptor (TPOR) (UniProt P40238). The experiment in a line: cell-based or functional assay.
Assay [4] has as its system T cells expressing GCSFRd715. The experiment in a line: Stimulation of T cells expressing GCSFRd715 for 7 days; cell number and percent transgenic cells by flow cytometry. The assay is classed as cell-based, human. Particulars: 0.1 μg/ml. The protocol:
as §1, §2
Healthy donor T cells were transduced to express (i) the thrombopoietin receptor (TPOR) or (ii) the GCF receptor with a deletion at aa 715 (GCSFRd715). […] Cell number (FIG. 12, top) or percent transgenic cells (FIG. 12, bottom) were quantified using flow cytometry at 7 days.

The next assay relates to G-CSFR. The assay can be described thus: Enrichment of G-CSFR transgenic T cells upon administration of G-CSF. The assay is classed as cell-based. Particulars: primary human T cells expressing G-CSFR. An excerpt: FIG. 7: Strong and specific enrichment of transgenic cells upon administration of G-CSF.
Ectopic expression of a myeloid cytokine receptor (G-CSFR) can be used to modulate CAR-T proliferation, and these T cells could then be inhibited by JAK2 inhibitors (e.g., FDA-approved JAK2 inhibitors such as ruxolitinib and others) (FIG. 6). […] The G-CSF receptor can be further modified to mediate downstream signaling that is normally associated with the T cell activating cytokine IL2 (chimeric G-CSF receptor) (FIG. 8). A pTRPE construct was used for the overexpression of G-CSFR IL2Rβ/IL2RG cytokine receptor (FIG. 9). The HEK IL2 Blue reporter cell line receptor (www.invivogen.com/hek-blue-il2) was used for screening the synthetic cytokine.

Sequence of UniProt Q99062 (Q99062 25-738 limits assumed, stated change not applied): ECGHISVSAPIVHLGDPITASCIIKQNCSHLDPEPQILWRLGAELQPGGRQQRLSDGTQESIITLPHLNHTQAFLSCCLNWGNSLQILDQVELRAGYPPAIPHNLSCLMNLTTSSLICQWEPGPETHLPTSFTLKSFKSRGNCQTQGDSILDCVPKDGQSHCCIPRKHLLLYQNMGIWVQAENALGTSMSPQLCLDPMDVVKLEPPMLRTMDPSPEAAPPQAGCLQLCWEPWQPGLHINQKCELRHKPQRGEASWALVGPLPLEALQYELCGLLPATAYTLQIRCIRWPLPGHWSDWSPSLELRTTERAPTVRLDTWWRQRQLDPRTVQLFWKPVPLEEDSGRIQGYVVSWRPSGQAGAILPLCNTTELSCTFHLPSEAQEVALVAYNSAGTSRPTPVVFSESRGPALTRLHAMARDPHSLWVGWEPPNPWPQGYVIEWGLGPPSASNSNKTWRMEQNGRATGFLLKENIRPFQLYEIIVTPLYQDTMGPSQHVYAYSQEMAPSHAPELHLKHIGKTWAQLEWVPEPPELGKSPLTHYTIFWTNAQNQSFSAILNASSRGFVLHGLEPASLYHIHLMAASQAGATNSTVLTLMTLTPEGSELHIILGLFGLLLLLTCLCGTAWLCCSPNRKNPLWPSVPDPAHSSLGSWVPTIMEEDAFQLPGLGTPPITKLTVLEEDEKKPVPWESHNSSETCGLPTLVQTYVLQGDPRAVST

`CC1=NN(c2ccc(C)c(C)c2)C(=O)/C1=N\Nc1cccc(-c2cccc(C(=O)O)c2)c1O` [EP, eltrombopag, reference compound]: in the assay with T cells expressing TPOR, the “TPOR fraction after addition of agonist” value is 55.9%.

“GCSF (from UniProt P09919 31-204) (ligand)” showed a percent transgenic cells by flow cytometry after 7 days in assay [1] of 64.9%.

TPO: recombinant thrombopoietin: the “STAT5 and STAT3 phosphorylation in TPOR expressing T cells” value in the assay on TPOR was “leads to STAT5 and STAT3 phosphorylation”. Also, in the assay with T cells expressing TPOR, the “Response of TPOR cells to stimulation (cell number)” value is recorded as “responded” and the “TPOR fraction after addition of agonist” value stood at 82%. In addition, the “Response of negative control cells (NGFR) to stimulation” value in assay [2] is recorded as “did not respond”.

In assay [3], “recombinant thrombopoietin (TPO) (from UniProt P40225 22-353) (ligand)” yielded a percent transgenic cells by flow cytometry after 7 days of 82%.

B1: GCSF: cognate cytokine of the G-CSF receptor, used at 0.1 μg/ml (protein)
chain: TPLGPASSLPQSFLLKCLEQVRKIQGDGAALQEKLCATYKLCHPEELVLLGHSLGIPWAPLSSCPSQALQLAGCLSQLHSGLFLYQGLLQALEGISPELGPTLDTLQLDVADFATTIWQQMEELGMAPALQPTQGAMPAFASAFQRRAGGVLVASHLQSFLEVSYRVLRHLAQP
Regarding B1, in the assay on T cells expressing TPOR, the “Response of TPOR cells to stimulation (cell number)” value is “not”. In addition, in assay [4], the “Response of GCSFRd715 cells to stimulation (cell number)” value is recorded as “responded”. The “GCSRFd715 transgenic cell fraction after addition of cytokine” value in assay [4] (enriched from 15.6% without addition) was 64.9%. For the same molecule, the “Response of negative control cells (NGFR) to stimulation” value in assay [2] was “did not respond”. The “Enrichment of transgenic cells upon administration of G-CSF” value with G-CSFR is listed as “Strong enrichment”.

These data come from patent US20250367288A1, “DELIVERY OF MULTI-CYTOKINE SIGNALS BY OVEREXPRESSION OF WILD-TYPE OR MUTANT SIGNAL TRANSDUCTION MOLECULES” (THE TRUSTEES OF THE UNIVERSITY OF PENNSYLVANIA, priority 2021, published 2025).
